Experiment [1] has as its target mannose-6-phosphate (M6P) receptor. The experiment in a line: M6P receptor affinity column (Affi-Gel 15), 6 ug GALNS loaded, eluted with mannose-6-phosphate gradient, quantified by GALNS ELISA. (In general: ELISA stands for enzyme-linked immunosorbent assay.)
The target is the same in experiment [2]. The experiment in a line: M6P receptor plate binding assay: receptor coated at 4 ug/mL, GALNS 0.16-10 nM, bound GALNS read by enzyme activity, single-site binding fit.
Experiment [3] has the same target. The experiment in a line: M6P receptor plate binding assay.

This note sets out measurements from patent US20160186149A1.

Broadly, the Kd is the free concentration of one partner at which half of the binding sites on the other are occupied at equilibrium, for simple one-to-one binding. A higher Kd goes with a looser complex.

B1: recombinant human N-acetylgalactosamine-6-sulfatase (GALNS), purified, produced from G71S clone 4 co-expressing human SUMF1 (enzyme)
chain: APQPPNILLLLMDDMGWGDLGVYGEPSRETPNLDRMAAEGLLFPNFYSANPLCSPSRAALLTGRLPIRNGFYTTNAHARNAYTPQEIVGGIPDSEQLLPELLKKAGYVSKIVGKWHLGHRPQFHPLKHGFDEWFGSPNCHFGPYDNKARPNIPVYRDWEMVGRYYEEFPINLKTGEANLTQIYLQEALDFIKRQARHHPFFLYWAVDATHAPVYASKPFLGTSQRGRYGDAVREIDDSIGKILELLQDLHVADNTFVFFTSDNGAALISAPEQGGSNGPFLCGKQTTFEGGMREPALAWWPGHVTAGQVSHQLGSIMDLFTTSLALAGLTPPSDRAIDGLNLLPTLLQGRLMDRPIFYYRGDTLMAATLGQHKAHFWTWTNSWENFRQGIDFCPGQNVSGVTTHNLEDHTKLPLIFHLGRDPGERFPLSFASAEYQEALSRITSVVQQHQEALVPAQPQLNVCNWAVMNWAPPGCEKLGKCLTPPESIPKKCLWSH
modifications: Cys at position 53 of the precursor (position 79 of SEQ ID NO:4) converted to Calpha-formylglycine (FGly), about 90%; N-linked glycosylation at Asn178 (bis-phosphorylated mannose 7, BPM7) and Asn397 (oligomannose-type), precursor numbering; 0.58 mol M6P (BPM7)/mol GALNS
Molecule B1 returned an M6P Receptor Column Binding: % Bound in experiment [1] of 56%. In addition, in experiment [2], the Kd is 2.4 nM.

B2: recombinant human N-acetylgalactosamine-6-sulfatase (GALNS), purified, produced from G71S clone C2 co-expressing human SUMF1 (enzyme)
chain: B1 chain
modifications: Cys at position 53 of the precursor (position 79 of SEQ ID NO:4) converted to Calpha-formylglycine (FGly); N-linked glycosylation at Asn178 (BPM7) and Asn397; 0.69 mol M6P/mol GALNS
On to B2, for which the dissociation constant Kd in experiment [3] is 5.7 nM.
